In the supplement of paper PMC9112550, “Optimization of the antimicrobial peptide Bac7 by deep mutational scanning” (BMC Biology, 2022):

What follows are sequences tested on Escherichia coli TOP10 (assay: shrunken log2 fold change of peptide-encoding DNA abundance (4.5 h post-induction vs induction); higher = less antimicrobial activity (less host growth inhibition)). Settings: time post-induction: 4.5 h; library: site-saturation at positions 5, 18, 19, 20.
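Note: peptides expressed intracellularly from a pBAD plasmid library in pooled LB shake-flask culture, induced with 0.3% L-arabinose, DNA abundance read by NGS, three biological replicates, DESeq2 with apeglm shrinkage.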

Sequence | shrunken log2 fold change
RRIRGRPPRLPRPRPRPAPKPRP | 1.18
RRIRKRPPRLPRPRPRPTWVPRP | -0.105
RRIRNRPPRLPRPRPRPMQIPRP | 0.0592
RRIRRRPPRLPRPRPRPVCQPRP | 0.179
RRIRSRPPRLPRPRPRPNHGPRP | -0.4
RRIRVRPPRLPRPRPRPISGPRP | -0.118
RRIRFRPPRLPRPRPRPCGVPRP | 0.0327
RRIRDRPPRLPRPRPRPDMVPRP | 0.00109
RRIRMRPPRLPRPRPRPGARPRP | 1.11
RRIRERPPRLPRPRPRPWQAPRP | 0.00281
RRIRYRPPRLPRPRPRPVLFPRP | -0.598
RRIRMRPPRLPRPRPRPYHFPRP | -0.16
RRIRPRPPRLPRPRPRPNQWPRP | 0.139
RRIRRRPPRLPRPRPRPLGHPRP | 0.203
RRIRRRPPRLPRPRPRPALNPRP | 0.248
RRIRERPPRLPRPRPRPWWHPRP | -0.523
RRIRIRPPRLPRPRPRPIDNPRP | -0.0769
RRIRHRPPRLPRPRPRPCGWPRP | 0.353
RRIRRRPPRLPRPRPRPIQKPRP | -0.218
RRIRDRPPRLPRPRPRPGVLPRP | -0.0992
RRIRNRPPRLPRPRPRPDEEPRP | 0.509
RRIRERPPRLPRPRPRPWDPPRP | 0.173
RRIRMRPPRLPRPRPRPSITPRP | -0.0273
RRIRQRPPRLPRPRPRPKCEPRP | 0.0276
RRIRQRPPRLPRPRPRPRMEPRP | -0.194

Sequence | shrunken log2 fold change
RRIRERPPRLPRPRPRPDQFPRP | -0.154
RRIRGRPPRLPRPRPRPTMFPRP | 0.521
RRIRSRPPRLPRPRPRPSAYPRP | -0.0159
RRIRTRPPRLPRPRPRPTLWPRP | 0.475
RRIRSRPPRLPRPRPRPIAIPRP | -0.0732
RRIRGRPPRLPRPRPRPITFPRP | -0.148
RRIRGRPPRLPRPRPRPCLWPRP | 0.426
RRIRLRPPRLPRPRPRPPECPRP | -0.29
RRIRDRPPRLPRPRPRPGTSPRP | -0.0025
RRIRPRPPRLPRPRPRPTWIPRP | 0.184
RRIRRRPPRLPRPRPRPCVPPRP | -0.149
RRIRKRPPRLPRPRPRPYRSPRP | 0.0428
RRIRARPPRLPRPRPRPIIRPRP | -0.357
RRIRCRPPRLPRPRPRPPNRPRP | 0.444
RRIRPRPPRLPRPRPRPIPCPRP | -0.172
RRIRSRPPRLPRPRPRPRNRPRP | -0.198
RRIRRRPPRLPRPRPRPALTPRP | 0.258
RRIRLRPPRLPRPRPRPWWYPRP | -0.227
RRIRYRPPRLPRPRPRPQDWPRP | -0.258
RRIRKRPPRLPRPRPRPCTVPRP | 0.23
RRIRPRPPRLPRPRPRPVDAPRP | 0.173
RRIRLRPPRLPRPRPRPDCIPRP | 0.185
RRIRHRPPRLPRPRPRPNILPRP | -0.448
RRIRYRPPRLPRPRPRPDRMPRP | -0.566
RRIRVRPPRLPRPRPRPGVRPRP | 0.188

Sequence | shrunken log2 fold change
RRIRMRPPRLPRPRPRPLGDPRP | 0.364
RRIRRRPPRLPRPRPRPAGIPRP | 0.352
RRIRVRPPRLPRPRPRPMHRPRP | -0.0728
RRIRLRPPRLPRPRPRPRKKPRP | 0.355
RRIRLRPPRLPRPRPRPHNGPRP | -0.00962
RRIRGRPPRLPRPRPRPMYAPRP | 0.706
RRIRHRPPRLPRPRPRPYRNPRP | -0.191
RRIRIRPPRLPRPRPRPDCEPRP | -0.0193
RRIRMRPPRLPRPRPRPNNAPRP | -0.0978
RRIRFRPPRLPRPRPRPLVVPRP | -0.0929
RRIRCRPPRLPRPRPRPPQTPRP | 0.665
RRIRMRPPRLPRPRPRPFDVPRP | 0.268
RRIRKRPPRLPRPRPRPSGFPRP | 0.161
RRIRMRPPRLPRPRPRPPCDPRP | 0.506
RRIRQRPPRLPRPRPRPLYPPRP | -0.228
RRIRWRPPRLPRPRPRPHNTPRP | -0.391
RRIRSRPPRLPRPRPRPMNTPRP | -0.647
RRIRCRPPRLPRPRPRPNHQPRP | -0.421
RRIRSRPPRLPRPRPRPSRFPRP | -0.0392
RRIRWRPPRLPRPRPRPHPKPRP | 0.408
RRIRFRPPRLPRPRPRPIQFPRP | -0.000317
RRIRTRPPRLPRPRPRPTMIPRP | -0.413
RRIRVRPPRLPRPRPRPGHAPRP | 0.245
RRIRFRPPRLPRPRPRPDGSPRP | -0.0167
RRIRRRPPRLPRPRPRPLWDPRP | 0.56

Sequence | shrunken log2 fold change
RRIRLRPPRLPRPRPRPQSSPRP | -0.419
RRIRNRPPRLPRPRPRPSNTPRP | -0.446
RRIRTRPPRLPRPRPRPPKSPRP | 0.556
RRIRGRPPRLPRPRPRPMENPRP | 0.47
RRIRVRPPRLPRPRPRPLHWPRP | 0.243
RRIRTRPPRLPRPRPRPFYNPRP | -0.755
RRIRQRPPRLPRPRPRPRDDPRP | 0.538
RRIRDRPPRLPRPRPRPIYNPRP | -0.771
RRIRFRPPRLPRPRPRPWGPPRP | -0.106
RRIRSRPPRLPRPRPRPGIIPRP | -0.454
RRIRQRPPRLPRPRPRPEKYPRP | -0.304
RRIRVRPPRLPRPRPRPWNHPRP | -0.152
RRIRWRPPRLPRPRPRPSDQPRP | 0.138
RRIRPRPPRLPRPRPRPTGIPRP | 0.726
RRIRTRPPRLPRPRPRPNSEPRP | 0.0485
RRIRYRPPRLPRPRPRPQEEPRP | -0.0969
RRIRLRPPRLPRPRPRPKLNPRP | -0.182
RRIRMRPPRLPRPRPRPTRVPRP | 0.25
RRIRKRPPRLPRPRPRPKPRPRP | 1.06
RRIRARPPRLPRPRPRPDFEPRP | 0.661
RRIRKRPPRLPRPRPRPEIPPRP | -0.00514
RRIRHRPPRLPRPRPRPRDKPRP | -0.132
RRIRRRPPRLPRPRPRPDVDPRP | 0.505
RRIRSRPPRLPRPRPRPYGPPRP | -0.401
RRIRHRPPRLPRPRPRPANHPRP | -0.262

Sequence | shrunken log2 fold change
RRIRQRPPRLPRPRPRPKPYPRP | -0.074
RRIRTRPPRLPRPRPRPIWRPRP | -0.111
RRIRLRPPRLPRPRPRPNEHPRP | -0.175
RRIRQRPPRLPRPRPRPSRWPRP | -0.0126
RRIRHRPPRLPRPRPRPLVFPRP | -0.29
RRIRGRPPRLPRPRPRPGCFPRP | 1.1
RRIRCRPPRLPRPRPRPICLPRP | -0.127
RRIRQRPPRLPRPRPRPYNDPRP | 0.00408
RRIRMRPPRLPRPRPRPPSKPRP | 0.557
RRIRPRPPRLPRPRPRPWAGPRP | -0.0189
RRIRQRPPRLPRPRPRPVQMPRP | -0.163
RRIRIRPPRLPRPRPRPKGTPRP | 0.0146
RRIRYRPPRLPRPRPRPWPSPRP | -0.00149
RRIRGRPPRLPRPRPRPETYPRP | 0.569
RRIRWRPPRLPRPRPRPRRHPRP | 0.559
RRIRSRPPRLPRPRPRPPSRPRP | 0.263
RRIRTRPPRLPRPRPRPKENPRP | 0.15
RRIRCRPPRLPRPRPRPMVMPRP | 0.0583
RRIRSRPPRLPRPRPRPPIDPRP | -0.0487
RRIRCRPPRLPRPRPRPRHNPRP | -0.374
RRIRQRPPRLPRPRPRPQFKPRP | -0.0321
RRIRCRPPRLPRPRPRPIMKPRP | -0.649
RRIRWRPPRLPRPRPRPLEKPRP | 0.429
RRIRWRPPRLPRPRPRPLDEPRP | 0.53
RRIRQRPPRLPRPRPRPMSPPRP | -0.11

Sequence | shrunken log2 fold change
RRIRCRPPRLPRPRPRPASRPRP | 0.096
RRIRVRPPRLPRPRPRPELDPRP | 0.183
RRIRLRPPRLPRPRPRPQVPPRP | -0.0408
RRIRTRPPRLPRPRPRPKHPPRP | -0.317
RRIRLRPPRLPRPRPRPRERPRP | 0.612
RRIRARPPRLPRPRPRPWQGPRP | 0.0405
RRIRDRPPRLPRPRPRPSKIPRP | -0.381
RRIRGRPPRLPRPRPRPEIWPRP | 1.34
RRIRSRPPRLPRPRPRPKLMPRP | -0.125
RRIRCRPPRLPRPRPRPVTWPRP | -0.417
RRIRDRPPRLPRPRPRPITTPRP | 0.0735
RRIRDRPPRLPRPRPRPGKWPRP | -0.00965
RRIRRRPPRLPRPRPRPQHRPRP | 0.266
RRIRARPPRLPRPRPRPMLMPRP | 0.044
RRIRSRPPRLPRPRPRPSMTPRP | -0.356
RRIRGRPPRLPRPRPRPTAVPRP | 2.41
RRIRCRPPRLPRPRPRPSRVPRP | 0.247
RRIRQRPPRLPRPRPRPKKPPRP | 0.0619
RRIRQRPPRLPRPRPRPLQFPRP | -0.168
RRIRYRPPRLPRPRPRPELDPRP | -0.165
RRIRLRPPRLPRPRPRPANDPRP | 0.0379
RRIRARPPRLPRPRPRPPGPPRP | 0.703
RRIRKRPPRLPRPRPRPSHSPRP | -0.47
RRIRSRPPRLPRPRPRPNPIPRP | 0.0127
RRIRMRPPRLPRPRPRPWLGPRP | 0.221
